B1: (TG)4 DNA (ssDNA)
DNA: TGTGTGTG

Legend:
[1] = target: HIV-1 NC WT (HIV-1 (NL4-3 isolate)) (UniProt P12493); assay: fluorescence anisotropy; details: FA: 20 mM HEPES pH 7.5, 50 mM NaCl, 10 uM TCEP, 5 mM beta-mercaptoethanol, 1 uM zinc acetate, 20 C, 30 min; 20 nM micro-TAR RNA or 10 nM (TG)4 DNA (Table …)
HIV-1 NC WT = HIV-1 NC WT (HIV-1 (NL4-3 isolate), UniProt P12493 378-432); assay: fluorescence anisotropy; 1 uM zinc acetate; FA: 20 mM HEPES pH 7.5, 50 mM NaCl, 10 uM TCEP, 5 mM beta-mercaptoethanol, 1 uM zinc acetate, 20 C, 30 min; 20 nM micro-TAR RNA or 10 nM (TG)4 DNA (Table 1 footnote: room temperature); details: protein: recombinant; label: 5' carboxyfluorescein (FAM); single strand

Molecule | Kd [1] [nM] | Kd (HIV-1 NC WT) [nM]
micro-TAR RNA 18-mer | 315 | –
B1 | – | 5 ± 1

Source: PMC3936775, “Differential contribution of basic residues to HIV-1 nucleocapsid protein’s nucleic acid chaperone function and retroviral replication”
